From patent publication US10662235B2, “Cysteine engineered fibronectin type III domain binding molecules” (Janssen Biotech, Inc., priority 2016, dated 2020)
Changes are numbered by the printed parent chain.

B1: P114AR7P92-G8: c-Met-binding FN3 domain, SEQ ID NO: 36 (protein)
chain: LPAPKNLVVSRVTEDSARLSWTAPDAAFDSFVIRYFEFLGSGEAIVLTVPGSERSYDLTGLKPGTEYVVQILGVKGGYISIPLSAIFTT
modifications: c-Met binding FN3 domain
B2: P114AR7P94-A3: c-Met-binding FN3 domain, SEQ ID NO: 41 (protein)
chain: B1 chain with V32W, Q70N, L72M, Y78K, I81P
modifications: c-Met binding FN3 domain
B3: P114AR7P92-H5: c-Met-binding FN3 domain, SEQ ID NO: 37 (protein)
chain: B1 chain with V32W, F36L, G40L, S41G, L72M, Y78T, I79V, I81P
modifications: c-Met binding FN3 domain
B4: P114AR7P95-D4: c-Met-binding FN3 domain, SEQ ID NO: 45 (protein)
chain: B1 chain with V32W
modifications: c-Met binding FN3 domain
B5: P114AR7P92-F6: c-Met-binding FN3 domain, SEQ ID NO: 35 (protein)
chain: B1 chain with V32W, Q70N, Y78G, I79L, I81V
modifications: c-Met binding FN3 domain
B6: P114AR5P74-A5: c-Met-binding FN3 domain, SEQ ID NO: 32 (protein)
chain: B1 chain with V32W, F36D, F38V, L39V, G40V, S41G, V68Y, Q70N, Y78S, I81V
modifications: c-Met binding FN3 domain
B7: P114AR7P94-E5: c-Met-binding FN3 domain, SEQ ID NO: 42 (protein)
chain: B1 chain with V32W, V68A, Q70N, L72M, Y78R, I79V, I81V
modifications: c-Met binding FN3 domain
B8: P114AR7P95-H8: c-Met-binding FN3 domain, SEQ ID NO: 49 (protein)
chain: B1 chain with V32W, L39V, G40S, S41K, Q70N, L72M, Y78S, I81P
modifications: c-Met binding FN3 domain
B9: P114AR7P93-G8: c-Met-binding FN3 domain, SEQ ID NO: 39 (protein)
chain: B1 chain with V32W, G60D, V68G, Q70T, L72N, Y78R, I79V, I81T
modifications: c-Met binding FN3 domain
B10: P114AR7P95-G7: c-Met-binding FN3 domain, SEQ ID NO: 48 (protein)
chain: B1 chain with V32W, F38L, G40S, S41T, Q70N, L72M, Y78S, I81P
modifications: c-Met binding FN3 domain
B11: P114AR7P95-F10: c-Met-binding FN3 domain, SEQ ID NO: 47 (protein)
chain: B1 chain with V32W, L39T, G40T, S41A, Q70N, L72M, Y78S, I81P
modifications: c-Met binding FN3 domain
B12: P114AR7P93-H9: c-Met-binding FN3 domain, SEQ ID NO: 40 (protein)
chain: B1 chain with V32W, L72I, Y78H, I81L
modifications: c-Met binding FN3 domain

Experiment: Thermal stability by differential scanning calorimetry
Type: physicochemical
Conditions: c-Met-binding FN3 domains, DSC in PBS
Method: The thermal stability of cysteine-NEM conjugates was assessed by differential scanning calorimetry (DSC). The only the conjugates tested were those determined to express at high levels, conjugate efficiently, and retain EGFR binding. Additionally, cysteine variants within the BC and FG loops were excluded. Stability data was generated by heating a 400 μL aliquot of the variant from 25° C. to 100° C. at a scan rate of 1° C. per minute in a VP-DSC instrument (MicroCal). A second identical scan was completed on the sample in order to assess the reversibility of thermal folding/unfolding. Data was fitted to a 2-state unfolding model in order to calculate the melting temperature (Table 10).
Thermal Stability of c-Met-Binding FN3 Domains Differential scanning calorimetry in PBS was used to assess the stability of each FN3 domain.

Point of comparison: B7, “Thermal Stability (Tm, C.)” value 80 C.. Against it:
- B1 — higher, 90.9 C.
- B2 — higher, 86.2 C.
- B3 — higher, 87 C.
- B4 — higher, 85.3 C.
- B5 — lower, 76.8 C.
- B6 — lower, 74.1 C.
- B8 — higher, 83 C.
- B9 — lower, 76.8 C.
- B10 — higher, 87.2 C.
- B11 — higher, 85.2 C.
- B12 — higher, 88.2 C.
